Publication PMC5630700 (2017)

B1: sdAb B–Gaussia luciferase fusion (glucibody, pecan35) (VHH)
VHH: KVQLQESGGGLVQAGGSLRLSCAASGGTFSINTLGWYRRAPGKEREFVARISSGGITRYADSVKGRFTISRDNGKNTVYLDMNSLKPEDTAVYYCMYRNWGGGLDVYWGQGTQVTVSS
B2: sdAb C–Gaussia luciferase fusion (glucibody, pecan35) (VHH)
VHH: KVQLQESGGGLVQVGGSLRLSCKASGFTFRSSAMGWYRRAPGKQRELVASLTTTGTADYGDFVKGRFTISRDNAENTVDLHMNSLKPEDTAVYYCHEDPYGMESLRYWGQGTQVTVSS
B3: sdAb A–Gaussia luciferase fusion (glucibody, pecan35) (VHH)
VHH: EVKLQESGGGLVQAGESLRLSCAVPPEVFDIRTVAWYRQVPLGKGRELLSSITPWNKTTYEDSVKDRFTISRDNAKYTVYLQMNDLKPEDTAVYYCAQGWGIASMRYWGQGTQVTVSS

The binders below were run against mbp-NP600 fusion protein (Marburg virus Musoke, UniProt P27588 601-695) (assay: ELISA).
Chain of mbp-NP600 fusion protein (P27588 601-695): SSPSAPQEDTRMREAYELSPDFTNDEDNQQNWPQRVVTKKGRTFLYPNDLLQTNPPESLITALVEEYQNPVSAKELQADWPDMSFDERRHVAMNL

Question: With B1 as the binder, how does the EC50 read?
Answer: Its EC50 is 162 nM.

Question: B2 was tested. Which EC50 did it give?
Answer: Its EC50 is 11.9 nM.

Question: Which EC50 does the source give for B3 here?
Answer: Its EC50 is 14.1 nM.

Each binder was assayed against purified recombinant MARV (Marburg Musoke) nucleoprotein polymer (Marburg virus Musoke, UniProt P27588 1-695) (assay: ELISA).
Chain of purified recombinant MARV (Marburg Musoke) nucleoprotein polymer (P27588 whole entry): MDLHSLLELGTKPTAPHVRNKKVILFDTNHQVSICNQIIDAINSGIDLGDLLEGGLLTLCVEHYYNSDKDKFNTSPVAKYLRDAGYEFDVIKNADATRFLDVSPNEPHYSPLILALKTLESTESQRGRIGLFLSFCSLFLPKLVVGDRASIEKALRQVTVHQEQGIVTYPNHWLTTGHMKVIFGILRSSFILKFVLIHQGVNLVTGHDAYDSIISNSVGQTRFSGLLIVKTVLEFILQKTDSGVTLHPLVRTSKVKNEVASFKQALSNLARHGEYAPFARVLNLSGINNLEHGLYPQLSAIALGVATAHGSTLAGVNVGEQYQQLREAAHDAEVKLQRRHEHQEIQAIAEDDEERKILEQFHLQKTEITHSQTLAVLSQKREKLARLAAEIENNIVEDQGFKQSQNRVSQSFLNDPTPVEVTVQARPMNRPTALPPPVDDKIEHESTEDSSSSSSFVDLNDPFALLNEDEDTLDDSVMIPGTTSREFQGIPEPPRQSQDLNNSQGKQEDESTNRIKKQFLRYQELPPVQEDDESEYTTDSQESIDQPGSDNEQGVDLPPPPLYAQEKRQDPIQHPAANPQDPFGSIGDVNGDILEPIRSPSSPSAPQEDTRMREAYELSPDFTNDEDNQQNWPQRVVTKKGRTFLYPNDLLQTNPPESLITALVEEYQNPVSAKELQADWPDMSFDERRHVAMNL

Question: B1 was tested. Which EC50 did it give?
Answer: Its EC50 is 10.8 nM.

Question: With B2 as the binder, how does the EC50 read?
Answer: Its EC50 is 4.1 nM.

Question: For B3, which EC50 is on record?
Answer: The EC50 was 2.8 nM.
